The values that follow come from paper PMC5309722, “A substrate-bound structure of cyanobacterial biliverdin reductase identifies stacked substrates as critical for activity” (Nature Communications, 2017).

Data set [1] addresses T1, Syn BVR (Synechocystis sp. PCC 6803, UniProt P72782).
T1 construct: gene bvdR; full length, 328 residues; N-terminal His6 tag (pET15b), E. coli C41(DE3); tag cut with thrombin for crystals
The experiment in a line: X-ray crystal structure, soaked crystal, […] Å. Type of data set: binding. As to conditions: 10 mM NADP+ soak; no biliverdin; cleft between the two domains.

The target of data set [2] is T1, Syn BVR. The experiment in a line: X-ray crystal structure, co-crystal, […] Å; also optical titration. As to conditions: ternary complex with NADP+; two stacked biliverdins (proximal and distal) in active site. In kind it is binding.
The target of another data set is T2, human BVR (Homo sapiens, UniProt P53004).
T2 construct: gene BLVRA; C-terminal His tag (pET21a(+)), codon-optimized synthetic gene, E. coli BL21(DE3)
T2 sequence (P53004 1-296 limits assumed): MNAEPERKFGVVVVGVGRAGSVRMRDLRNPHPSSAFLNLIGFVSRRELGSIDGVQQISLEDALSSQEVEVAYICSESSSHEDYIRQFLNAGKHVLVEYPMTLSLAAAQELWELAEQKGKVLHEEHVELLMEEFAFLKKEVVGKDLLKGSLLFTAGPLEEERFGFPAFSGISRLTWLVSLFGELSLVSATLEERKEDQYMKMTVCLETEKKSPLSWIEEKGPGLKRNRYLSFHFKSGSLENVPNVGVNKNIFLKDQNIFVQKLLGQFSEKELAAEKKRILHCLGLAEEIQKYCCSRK
In words: optical titration, difference absorption. In kind it is binding. As to conditions: 5 mM NADP+, 200 mM Tris-HCl pH 8.75, 28 °C; two biliverdins bound.

The next data set deals with T3, rat BVR (Rattus norvegicus, UniProt P46844).
T3 construct: gene Blvra; C-terminal His tag (pET21a-rat bvr), E. coli BL21(DE3)
T3 sequence (P46844 1-295 limits assumed): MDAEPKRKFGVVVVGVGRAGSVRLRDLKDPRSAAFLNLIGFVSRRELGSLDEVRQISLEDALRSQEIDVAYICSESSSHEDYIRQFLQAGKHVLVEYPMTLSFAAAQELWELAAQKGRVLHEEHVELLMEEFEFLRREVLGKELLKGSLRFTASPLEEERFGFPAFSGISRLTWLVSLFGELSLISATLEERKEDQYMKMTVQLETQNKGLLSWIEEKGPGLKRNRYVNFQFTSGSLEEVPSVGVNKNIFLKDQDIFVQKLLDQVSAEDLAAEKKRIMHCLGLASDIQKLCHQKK
The experiment in a line: optical titration, difference absorption. In kind it is binding. Particulars: 5 mM NADP+, 200 mM Tris-HCl pH 8.75, 28 °C; two biliverdins bound.

Data set [3] addresses T1, Syn BVR. The experiment in a line: reduction of biliverdin in crystal and solution. In kind it is biochemical. As to conditions: biliverdin as co-substrate; crystallization solution.
Substrate in data set [4]: C=CC1=C(C)/C(=C/c2[nH]c(/C=C3N=C(/C=C4\NC(=O)C(C)=C4C=C)C(C)=C\3CCC(=O)O)c(CCC(=O)O)c2C)NC1=O
In words: steady-state kinetics, A450 bilirubin formation. In kind it is biochemical, Synechocystis sp. PCC 6803. Particulars: 100 μM NADPH, 100 mM citrate pH 5.75. The source says: steady-state kinetics, A450 bilirubin formation on Syn BVR

Substrate in data set [5]: C=CC1=C(C)/C(=C/c2[nH]c(/C=C3N=C(/C=C4\NC(=O)C(C)=C4C=C)C(C)=C\3CCC(=O)O)c(CCC(=O)O)c2C)NC1=O
In words: steady-state kinetics, A450 bilirubin formation. Type of data set: biochemical, Homo sapiens. As to conditions: 100 μM NADPH, 100 mM Tris-HCl pH 8.75. From the text:
steady-state kinetics, A450 bilirubin formation on human BVR

Substrate in data set [6]: C=CC1=C(C)/C(=C/c2[nH]c(/C=C3N=C(/C=C4\NC(=O)C(C)=C4C=C)C(C)=C\3CCC(=O)O)c(CCC(=O)O)c2C)NC1=O
In words: steady-state kinetics, A450 bilirubin formation. In kind it is biochemical, Rattus norvegicus. As to conditions: 100 μM NADPH, 100 mM Tris-HCl pH 8.75. From the text: steady-state kinetics, A450 bilirubin formation on rat BVR

Substitutions are numbered along the chain they refer to. Names may count otherwise.

T1 sequence (P72782 entry or part of it): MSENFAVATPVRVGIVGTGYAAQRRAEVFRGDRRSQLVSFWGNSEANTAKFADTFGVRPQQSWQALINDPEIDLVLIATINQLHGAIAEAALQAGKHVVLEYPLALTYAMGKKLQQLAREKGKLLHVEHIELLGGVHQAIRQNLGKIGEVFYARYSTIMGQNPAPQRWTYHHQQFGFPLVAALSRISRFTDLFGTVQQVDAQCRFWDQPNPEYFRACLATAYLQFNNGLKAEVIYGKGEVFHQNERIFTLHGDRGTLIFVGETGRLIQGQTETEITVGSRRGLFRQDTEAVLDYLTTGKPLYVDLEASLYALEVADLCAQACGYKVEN

For the molecule `NC(=O)c1ccc[n+]([C@@H]2O[C@H](COP(=O)(O)OP(=O)(O)OC[C@H]3O[C@@H](n4cnc5c(N)ncnc54)[C@H](OP(=O)(O)O)[C@@H]3O)[C@@H](O)[C@H]2O)c1` [NADP^+], on Syn BVR [1], the “X-ray crystal structure, soaked crystal, 2.7 Å” value is “NADP^+ binds in the cleft between the two domains”.

As for `C=CC1=C(C)/C(=C/c2[nH]c(/C=C3N=C(/C=C4\NC(=O)C(C)=C4C=C)C(C)=C\3CCC(=O)O)c(CCC(=O)O)c2C)NC1=O` [biliverdin IXα], the “X-ray crystal structure, co-crystal, 2.6 Å; also optical titration” value at Syn BVR [2] is listed as “two BV molecules are bound to the catalytic cleft between the two domains”. In addition, the “optical titration, difference absorption” value is “two BV molecules bound in both human and rat BVRs” on human BVR; “two BV molecules bound in both human and rat BVRs” on rat BVR.

Turning to `NC(=O)C1=CN([C@@H]2O[C@H](COP(=O)(O)OP(=O)(O)OC[C@H]3O[C@@H](n4cnc5c(N)ncnc54)[C@H](OP(=O)(O)O)[C@@H]3O)[C@@H](O)[C@H]2O)C=CC1` [NADPH], on Syn BVR [3], the “reduction of biliverdin in crystal and solution” value was “BV could be rapidly (as in the mixing time) reduced to BR by addition of NADPH”.

B1: Syn BVR (Synechocystis sp. PCC 6803 substr. Kazusa; R246A) (protein)
chain: MSENFAVATPVRVGIVGTGYAAQRRAEVFRGDRRSQLVSFWGNSEANTAKFADTFGVRPQQSWQALINDPEIDLVLIATINQLHGAIAEAALQAGKHVVLEYPLALTYAMGKKLQQLAREKGKLLHVEHIELLGGVHQAIRQNLGKIGEVFYARYSTIMGQNPAPQRWTYHHQQFGFPLVAALSRISRFTDLFGTVQQVDAQCRFWDQPNPEYFRACLATAYLQFNNGLKAEVIYGKGEVFHQNEAIFTLHGDRGTLIFVGETGRLIQGQTETEITVGSRRGLFRQDTEAVLDYLTTGKPLYVDLEASLYALEVADLCAQACGYKVEN
notes: full length, 328 residues; N-terminal His6 tag (pET15b), E. coli C41(DE3); tag cut with thrombin for crystals
As a reminder, the Km is the substrate concentration at which the rate is half of its maximum. By kcat is commonly meant the number of substrate molecules converted per active site and unit of time at saturation. As a reminder, the kcat/Km is the second-order rate constant that governs catalysis at low substrate concentration. B1: in data set [4], the Km is 5.1 ± 0.8 µM, the kcat was found to be 11 ± 0.6 s⁻¹ and the kcat/Km worked out at 2.2e+06 M⁻¹ s⁻¹.

B2: Syn BVR (Synechocystis sp. PCC 6803 substr. Kazusa; R185K) (protein)
chain: B1 chain with R185K, A246R
notes: as for B1
As for B2, in data set [4], the Km was 12.6 ± 1.5 µM, the kcat was 0.9 ± 0.05 s⁻¹ and the kcat/Km was determined as 70000 M⁻¹ s⁻¹.

B3: Syn BVR (Synechocystis sp. PCC 6803 substr. Kazusa) (protein)
chain: B1 chain with A246R
notes: as for B1
For B3, in data set [4], the Km amounted to 1.8 ± 0.3 µM, the kcat turned out to be 7.1 ± 0.2 s⁻¹ and the kcat/Km was determined as 3.9e+06 M⁻¹ s⁻¹.

B4: Syn BVR (Synechocystis sp. PCC 6803 substr. Kazusa; T169A) (protein)
chain: B1 chain with T169A, A246R
notes: as for B1
B4: in data set [4], the Km worked out at 3.4 ± 0.5 µM, the kcat amounted to 13.1 ± 0.5 s⁻¹ and the kcat/Km came to 3.9e+06 M⁻¹ s⁻¹.

B5: Syn BVR (Synechocystis sp. PCC 6803 substr. Kazusa; R185A) (protein)
chain: B1 chain with R185A, A246R
notes: as for B1
Turning to B5, in data set [4], the Km came to 6.9 ± 0.6 µM, the turnover number (kcat) was 0.7 ± 0.02 s⁻¹ and the kcat/Km came out at 100000 M⁻¹ s⁻¹.

B6: Syn BVR (Synechocystis sp. PCC 6803 substr. Kazusa; Y102F) (protein)
chain: B1 chain with Y102F, A246R
notes: as for B1
Consider B6, for which, in data set [4], the Km is 4.0 ± 0.3 µM, the kcat is 2.7 ± 0.07 s⁻¹ and the kcat/Km came out at 700000 M⁻¹ s⁻¹.

B7: human BVR (Homo sapiens) (protein)
chain: T2 sequence (P53004 1-296 limits assumed)
notes: C-terminal His tag (pET21a(+)), codon-optimized synthetic gene, E. coli BL21(DE3)
For the molecule B7, in data set [5], the Km was 20.7 ± 10.1 µM, the kcat is 94.8 ± 31.4 s⁻¹ and the kcat/Km was 4.6e+06 M⁻¹ s⁻¹.

B8: human BVR (Homo sapiens; R172A) (protein)
chain: T2 sequence (P53004 1-296 limits assumed) with R172A
notes: as for B7
For the molecule B8, in data set [5], the Km amounted to 87.7 ± 35.7 µM, the kcat came out at 17.9 ± 6.3 s⁻¹ and the kcat/Km is 200000 M⁻¹ s⁻¹.

B9: human BVR (Homo sapiens; Y98F) (protein)
chain: T2 sequence (P53004 1-296 limits assumed) with Y98F
notes: as for B7
Consider B9, for which, in data set [5], the Km was determined as 3.8 ± 0.3 µM, the kcat is 16.8 ± 0.5 s⁻¹ and the kcat/Km stood at 4.4e+06 M⁻¹ s⁻¹.

B10: rat BVR (Rattus norvegicus) (protein)
chain: T3 sequence (P46844 1-295 limits assumed)
notes: C-terminal His tag (pET21a-rat bvr), E. coli BL21(DE3)
For B10, in data set [6], the Km stood at 4.6 ± 1.1 µM, the kcat is 69.3 ± 8.5 s⁻¹ and the kcat/Km worked out at 1.51e+07 M⁻¹ s⁻¹.

B11: rat BVR (Rattus norvegicus; Y97F) (protein)
chain: T3 sequence (P46844 1-295 limits assumed) with Y97F
notes: as for B10
As for B11, in data set [6], the Km turned out to be 11.7 ± 1.0 µM, the kcat was 13.6 ± 0.6 s⁻¹ and the kcat/Km was determined as 1.2e+06 M⁻¹ s⁻¹.

B12: rat BVR (Rattus norvegicus; R171E) (protein)
chain: T3 sequence (P46844 1-295 limits assumed) with R171E
notes: as for B10
On to B12, for which, in data set [6], the Michaelis constant (Km) turned out to be 45.7 ± 15.4 µM, the kcat is 0.7 ± 0.2 s⁻¹ and the kcat/Km came out at 20000 M⁻¹ s⁻¹.

B13: rat BVR (Rattus norvegicus; R171A) (protein)
chain: T3 sequence (P46844 1-295 limits assumed) with R171A
notes: as for B10
Regarding B13, in data set [6], the Michaelis constant (Km) stood at 24.4 ± 1.5 µM, the catalytic constant (kcat) stood at 6 ± 0.2 s⁻¹ and the kcat/Km was determined as 200000 M⁻¹ s⁻¹.
